Measurements as given in publication PMC6770530, “Tumor Uptake of Triazine Dendrimers Decorated with Four, Sixteen, and Sixty-Four PSMA-Targeted Ligands: Passive versus Active Tumor Targeting” (Biomolecules, 2019).
Where two headings read alike, the source gives them in different places.

What was measured:
[1] = biological target: T1, PSMA (Homo sapiens, UniProt Q04609); set-up: method as in PMID 15027864, PMID 25822623; details: cited from earlier work
T1 construct: expressed in transfected cells; host or cells: PC3-PIP cells (PSMA positive)

[2] = biological target: T1, PSMA; experiment: Competitive cell-binding assay with 125I-labeled PSMA radioligand in PC3-PIP cells; details: read-out: IC50 (displacing 50% of the 125I-labeled PSMA radioligand bound to PC3-PIP cells), room temperature 2 h, n = 4
Experimental: A reported PSMA ^125I-radioligand [21] was used as a PSMA-specific radioligand in the assay. PC3-PIP cells were suspended in Tris-buffered saline (TBS) and seeded on multiwell DV plates (Millipore) with 5 × 10^4 cells per well. […] The unbound ^125I-radioligand was removed by filtration. The wells were rinsed five times with cold TBS buffer. The filters were then collected and their radioactivity was measured on a 2480 automatic gamma counter (PerkinElmer).

[3] = tested on: PC3-PIP (PSMA positive) and PC3-FLU (PSMA negative) cells; experiment: Cell uptake of 64Cu-labeled dendrimers in PC3-PIP and PC3-FLU cells; format: cell-based; details: 64Cu-labeled dendrimer, 1 h at 37 °C, n = 3
Experimental: Cell uptake experiments were conducted in the PSMA positive PC3-PIP cell lines and the PSMA negative PC-FLU cell lines. The cells (5.0 × 10^5) were seeded to a 6-well plate and incubated at 37 °C overnight in a humidified incubator with 5% CO2. After being rinsed with binding buffer (20 mM Tris, 150 mM NaCl, pH 7.4), the cells in binding buffer (500 µL) were incubated at 37 °C with ~6.0 × 10^5 CPM of ^64Cu-labeled dendrimers for 1 h, washed with cold binding buffer, and then trypsinized. The radioactivity of trypsinized cells was counted on a 2480 automatic gamma counter (PerkinElmer).

[4] = tested on: PC3-PIP cells; experiment: Internalization of 64Cu-labeled dendrimers in PC3-PIP cells; format: cell-based; details: 64Cu-labeled dendrimer, incubation 1-120 min
Experimental: The PC3-PIP cells were used for the internalization study. The 12-well plates containing ~2.0 × 10^5 cells were incubated overnight in a humidified incubator at 37 °C with 5% CO2 and then washed with binding buffer (20 mM Tris, 150 mM NaCl, pH 7.4). Each solution of ^64Cu-labeled dendrimers (~6.0 × 10^5 CPM) in 0.4 mL of binding buffer was incubated with the cells for 1, 10, 30, 60, and 120 min, respectively, and then washed once with ice-cold binding buffer. The surface bound ^64Cu-labeled dendrimers were removed by incubating cells twice for 5 min with 0.5 mL of ice-cold low pH stripping buffer (150 mM NaCl, 50 mM glycine, pH 3.0) and collected in a culture tube. After incubation with 0.5 mL of 4 M NaOH at 37 °C for 15 min, the NaOH-solubilized cells were collected in separate culture tubes. The radioactivity of surface bound/internalized ^64Cu-labeled dendrimers was counted on a 2480 automatic gamma counter (PerkinElmer).

[5] = Serum stability assay of 64Cu-labeled dendrimers; format: in vitro ADME, rat
Experimental: The stability of ^64Cu-labeled dendrimers was evaluated in rat serum. […] An aliquot of sample (10 µL) was mixed with 5 mM EDTA (100-fold molar excess) and incubated at 37 °C for 10 min. The resulting solution was analyzed by a Rita Star Radioisotope TLC Analyzer.

[6] = mouse, in vivo, iv, 64Cu-labeled dendrimer; for tissue uptake at 1 h: 1 h p.i.; for tissue uptake at 4 h: 4 h p.i.
[7] = tested on: SCID mice bearing PC3-PIP and PC3-FLU xenografts; details: 64Cu-labeled dendrimer, i.v., 4 h p.i.
[8] = set-up: method as in PMID 23398590; details: estimated by dynamic light scattering of unfunctionalized analogues; cited from earlier work
[9] = In vivo organ uptake, Left Kidney
[10] = In vivo organ uptake, Right Kidney
[11] = In vivo tumor uptake, PC3-FLU, PSMA negative xenograft right shoulder
[12] = In vivo tumor uptake, PC3-PIP, PSMA positive xenograft left shoulder

T1 sequence (Q04609 whole entry): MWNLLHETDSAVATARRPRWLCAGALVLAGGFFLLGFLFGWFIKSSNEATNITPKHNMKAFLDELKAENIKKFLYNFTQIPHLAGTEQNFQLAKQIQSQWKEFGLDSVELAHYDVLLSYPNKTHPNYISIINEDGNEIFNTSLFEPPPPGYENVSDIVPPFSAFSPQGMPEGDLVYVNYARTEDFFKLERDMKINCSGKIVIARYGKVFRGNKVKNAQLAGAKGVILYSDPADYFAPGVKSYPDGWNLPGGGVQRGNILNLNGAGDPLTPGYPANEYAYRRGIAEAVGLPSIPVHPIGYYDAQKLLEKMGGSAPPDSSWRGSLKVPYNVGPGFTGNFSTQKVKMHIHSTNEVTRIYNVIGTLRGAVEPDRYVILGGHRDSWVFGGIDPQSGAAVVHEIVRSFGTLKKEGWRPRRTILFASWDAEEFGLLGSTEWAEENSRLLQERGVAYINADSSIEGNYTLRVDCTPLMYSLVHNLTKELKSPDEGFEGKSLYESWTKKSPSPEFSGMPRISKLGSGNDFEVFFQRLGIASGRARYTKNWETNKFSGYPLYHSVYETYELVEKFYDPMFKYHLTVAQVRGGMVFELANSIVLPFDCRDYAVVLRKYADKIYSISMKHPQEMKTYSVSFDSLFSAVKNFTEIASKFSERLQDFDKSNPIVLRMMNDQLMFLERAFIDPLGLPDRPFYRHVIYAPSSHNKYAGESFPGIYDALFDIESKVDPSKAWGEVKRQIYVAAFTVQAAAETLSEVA

O=C(O)CCC(NC(=O)NC(CCC(=O)O)C(=O)O)C(=O)O (stereo not shown) [DUPA, 2-[3-(1,3-dicarboxypropyl)-ureido] pentanedioic acid]
IC50 [1]: 47 nM | Ki [1]: 8 nM

NCC1CCN(c2nc(NCCCOCCOCCOCCCNC(=O)CCCCCCCNC(=O)CC[C@H](NC(=O)N[C@@H](CCC(=O)O)C(=O)O)C(=O)O)nc(N3CCN(c4nc(NCCCOCCOCCOCCCNc5nc(NCCCOCCOCCOCCCNC(=O)CCC(C(=O)O)N6CCN(CC(=O)O)CCN(CC(=O)O)CCN(CC(=O)O)CC6)nc(NCCCOCCOCCOCCCNc6nc(N7CCN(c8nc(NCCCOCCOCCOCCCNC(=O)CCCCCCCNC(=O)CC[C@H](NC(=O)N[C@@H](CCC(=O)O)C(=O)O)C(=O)O)nc(N9CCC(CN)CC9)n8)CC7)nc(N7CCN(c8nc(NCCCOCCOCCOCCCNC(=O)CCCCCCCNC(=O)CC[C@H](NC(=O)N[C@@H](CCC(=O)O)C(=O)O)C(=O)O)nc(N9CCC(CN)CC9)n8)CC7)n6)n5)nc(N5CCN(c6nc(NCCCOCCOCCOCCCNC(=O)CCCCCCCNC(=O)CC[C@H](NC(=O)N[C@@H](CCC(=O)O)C(=O)O)C(=O)O)nc(N7CCC(CN)CC7)n6)CC5)n4)CC3)n2)CC1 (stereo partly shown) [G1-(DUPA)4]
IC50 [2]: 282 nM | PC3-PIP to PC3-FLU cell uptake ratio [3]: 10 | highest (maximum) internalization [4]: 49% | serum stability [5]: stable in rat serum and remained intact over 24 h | tissue uptake at 1 h ([6]; In vivo organ uptake, Bone): 0.08 ± 0.03 %ID/g | tissue uptake at 4 h ([6]; In vivo organ uptake, Bone): 0.07 ± 0.01 %ID/g | tissue uptake at 24 h ([6]; In vivo organ uptake, Bone, 24 h p.i.): 0.08 ± 0.02 %ID/g | tissue uptake at 1 h ([6]; In vivo organ uptake, Brain): 0.03 ± 0.01 %ID/g | tissue uptake at 4 h ([6]; In vivo organ uptake, Brain): 0.02 %ID/g | tissue uptake at 24 h ([6]; In vivo organ uptake, Brain, 24 h p.i.): 0.07 %ID/g | tissue uptake at 1 h ([6]; In vivo organ uptake, Heart): 0.16 ± 0.05 %ID/g | tissue uptake at 4 h ([6]; In vivo organ uptake, Heart): 0.1 ± 0.02 %ID/g | tissue uptake at 24 h ([6]; In vivo organ uptake, Heart, 24 h p.i.): 0.25 ± 0.05 %ID/g | tissue uptake at 1 h [6, 9]: 53.3 ± 4.37 %ID/g | tissue uptake at 4 h [6, 9]: 58.7 ± 4.98 %ID/g | tissue uptake at 24 h ([6]; In vivo organ uptake, Left Kidney, 24 h p.i.): 54 ± 5.96 %ID/g | tissue uptake at 1 h ([6]; In vivo organ uptake, Liver): 1.03 ± 0.16 %ID/g | tissue uptake at 4 h ([6]; In vivo organ uptake, Liver): 1.2 ± 0.2 %ID/g | tissue uptake at 24 h ([6]; In vivo organ uptake, Liver, 24 h p.i.): 1.93 ± 0.15 %ID/g | tissue uptake at 1 h ([6]; In vivo organ uptake, Muscle): 0.06 ± 0.03 %ID/g | tissue uptake at 4 h ([6]; In vivo organ uptake, Muscle): 0.05 ± 0.01 %ID/g | tissue uptake at 24 h ([6]; In vivo organ uptake, Muscle, 24 h p.i.): 0.13 ± 0.03 %ID/g | tissue uptake at 1 h [6, 10]: 56.8 ± 5.14 %ID/g | tissue uptake at 4 h [6, 10]: 60 ± 3.27 %ID/g | tissue uptake at 24 h ([6]; In vivo organ uptake, Right Kidney, 24 h p.i.): 55 ± 7.36 %ID/g | tissue uptake at 1 h [6, 11]: 0.18 ± 0.05 %ID/g | tissue uptake at 4 h [6, 11]: 0.13 ± 0.02 %ID/g | tissue uptake at 24 h ([6]; In vivo tumor uptake, PC3-FLU, PSMA negative xenograft right shoulder, 24 h p.i.): 0.33 ± 0.06 %ID/g | tissue uptake at 1 h [6, 12]: 0.99 ± 0.36 %ID/g | tissue uptake at 4 h [6, 12]: 0.87 ± 0.4 %ID/g | tissue uptake at 24 h ([6]; In vivo tumor uptake, PC3-PIP, PSMA positive xenograft left shoulder, 24 h p.i.): 0.81 ± 0.36 %ID/g | tissue uptake at 24 h ([6]; level of kidney uptake, over 24 h p.i.): 45 to 55 %ID/g | PC3-PIP to PC3-FLU uptake ratio (in vivo) [7]: 6.7 ± 3.0 | PC3-PIP to muscle uptake ratio [7]: 17.7 ± 5.5 | dimensions [8]: approximately 2 nm
